Earlier results on one substance are cited in publication PMC9987997.

Broadly, the Kd is the free concentration of one partner at which half of the binding sites on the other are occupied at equilibrium, for simple one-to-one binding.

Data set [1] deals with Scribble PDZ4 (Homo sapiens) (UniProt Q14160). The data set can be described thus: ITC. In general terms: Isothermal titration calorimetry measures the heat released or taken up as one component is titrated into another.
In data set [2] the target is Scribble PDZ1 (Homo sapiens) (UniProt Q14160). The data set can be described thus: ITC.

Regarding “NS1 (ESEV PBM) PBM (from UniProt Q8QPI8)”, the Kd in data set [1] was 12.2 µM; in data set [2], 21.4 µM.
